According to patent US20250289871A1:

How the values were obtained:
Assay in all cases: cell-based or functional assay
[1] = target: SARS-CoV-2 BA.1.1 spike protein (authentic virus) (SARS-CoV-2) (UniProt P0DTC2)
[2] = target: SARS-CoV-2 Alpha spike protein (authentic virus) (SARS-CoV-2) (UniProt P0DTC2)
[3] = target: SARS-CoV-2 BA.2 spike protein (authentic virus) (SARS-CoV-2) (UniProt P0DTC2)
[4] = target: SARS-CoV-2 BA.5 spike protein (authentic virus) (SARS-CoV-2) (UniProt P0DTC2)
[5] = target: SARS-CoV-2 BA.1 spike protein (authentic virus) (SARS-CoV-2) (UniProt P0DTC2)
[6] = target: SARS-CoV-2 BA.2.12.1 spike protein (authentic virus) (SARS-CoV-2) (UniProt P0DTC2)

For cilgavimab (AZD1061) (antibody), the Authentic Virus Neutralization IC50 [1] was > 10 µg/mL, the Authentic Virus Neutralization IC50 [2] was 0.006 µg/mL and the Authentic Virus Neutralization IC50 [3] was 0.021 µg/mL. The Authentic Virus Neutralization IC50 [4] was 0.131 µg/mL, the Authentic Virus Neutralization IC50 [5] was 3.78 µg/mL and the Authentic Virus Neutralization IC50 [6] was 0.029 µg/mL.
